Common to all, as to assay type: biochemical, porcine
Data set [1] deals with T1, TRH-DE (Sus scrofa, UniProt A0A287AP33).
T1 construct: The inventor purified TRH-DE from porcine brain according to purification procedures previously published by Dr. K. Bauer; from tissue; host or cells: porcine brain (TRH-DE); bovine kidney (DPP-IV, gift from Dr. C. H. Williams)
Kind of data set: discontinuous fluorometric TRH-DE assay with TRHAMC as substrate. To be noted: measured indirectly, peptide treated as competitive inhibitor of TRHAMC hydrolysis; non-linear regression; mean±S.D. As to the method: (§1) The inventor purified TRH-DE from porcine brain according to purification procedures previously published by Dr. K. Bauer, (Max-Planck-Institut, Hannover, Germany) (1). TRH-DE was purified almost 20,000 fold. […] Dipeptidyl peptidase IV (DPP-IV) (EC 3.4.14.5), purified from bovine kidney (7.7 mg ml^−1, specific activity of 17.5 U mg^−1 with Gly-ProAMC as substrate), was obtained as a gilt from Dr. C. H. Williams (Queen's University Belfast, U.K). (DPP-IV was used as the coupling enzyme used in the fluorometric assays).
(§2) One unit (U) of enzyme activity was defined as that amount catalysing the formation of one μmol of product in one minute under the standard conditions employed. […]
(§3) Determination of inhibitor constants for selected TRH-DE substrates—The HPLC assay lacked sufficient sensitivity for determining kinetic constants. […] This assay employs TRHAMC as the substrate and depends on the measurement of the fluorescence of 7-amino-4 methyl coumarin (AMC) produced as follows:
We have shown that the amount of AMC formed under these conditions is a quantitative measure of TRHAMC cleavage (23). Initial rates for the hydrolysis of TRHAMC by TRH-DE were determined in triplicate at five different substrate concentrations both in the absence and presence of at least three concentrations of peptide. […]

For data set [2], the target named is T1, TRH-DE. Nature of the data set: HPLC assay of peptide hydrolysis by TRH-DE (Glp production). In outline: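 Porcine brain TRH-DE incubated with 1 mM peptide in 20 mM potassium phosphate, pH 7.5, 37 °C: screen with 0.8 μg enzyme for 18 h; rate microassays with 0.8-3.2 μg enzyme for 5 min to 18 h, in triplicate. Reactions stopped with TFA; Glp quantified by C-18 reverse-phase HPLC, UV 206 nm.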

Substrate in data set [3]: Cc1cc(=O)oc2cc(NC(=O)[C@@H]3CCCN3C(=O)[C@H](Cc3c[nH]cn3)NC(=O)[C@@H]3CCC(=O)N3)ccc12
Kind of data set: continuous coupled fluorometric TRH-DE assay (TRHAMC substrate, DPP-IV coupling enzyme). To be noted: other: Michaelis constant of TRHAMC, non-linear regression, pH 7.5, 37.0 °C. The method, then: as §1, §2
The reaction was monitored continuously by measuring the increase in AMC fluorescence. A linear progress curve with no discernible lag period was observed when the reaction was monitored over a period of 10 minutes. […]
In a preliminary experiment, the peptides were screened for their ability to inhibit TRH-DE activity. The initial rate of TRHAMC hydrolysis by TRH-DE was measured by incubating 5 μM TRHAMC with 1.23 μg DPP-IV and 0.32 μg TRH-DE, both in the absence and presence of each library peptide (1 mM final concentration) under standard assay conditions (23). […]
Fluorescence measurements were made using a Perkin Elmer LS 50B Luminescence Spectrometer fitted with a thernostated cell holder. […]

Substrate in data set [4]: Cc1cc(=O)oc2cc(NC(=O)[C@@H]3CCCN3C(=O)[C@H](Cc3c[nH]cn3)NC(=O)[C@@H]3CCC(=O)N3)ccc12
Kind of data set: discontinuous fluorometric TRH-DE assay with TRHAMC as substrate. The note with it: other: Michaelis constant of TRHAMC measured directly, discontinuous assay; pH 7.5; 37.0 °C. As to the method: as §1
(§4) One unit (U) of enzyme activity was defined as that amount catalysing the formation of one μmol of product in one minute under the standard conditions employed. All incubations in the assays described below were carried out in 20 mM potassium phosphate buffer, pH 7.5, at 37° C.
as §3
(§5) We have shown that the amount of AMC formed under these conditions is a quantitative measure of TRHAMC cleavage (23). Initial rates for the hydrolysis of TRHAMC by TRH-DE were determined in triplicate at five different substrate concentrations both in the absence and presence of at least three concentrations of peptide. Ki values were obtained by non-linear regression analysis of the data collected. Determined in this way (i.e. by treating the peptide substrates as inhibitors of TRHAMC hydrolysis), these Ki values correspond to the Michaelis constants for those library peptides hydrolysed by TRH-DE (32).

Substrate in data set [5]: NC(=O)[C@@H]1CCCN1C(=O)[C@H](Cc1ccccc1)NC(=O)[C@@H]1CCC(=O)N1
The description is as above. The note with it: other: measured indirectly, peptide treated as competitive inhibitor of TRHAMC hydrolysis; non-linear regression; mean±S.D.; pH 7.5; 37.0 °C. As to the method:
as §1, §4, §3, §5

Substrate in data set [6]: NC(=O)[C@@H]1CCCN1C(=O)[C@H](Cc1ccc(O)cc1)NC(=O)[C@@H]1CCC(=O)N1
The description is as above. The note with it: other: measured indirectly, peptide treated as competitive inhibitor of TRHAMC hydrolysis; non-linear regression; mean±S.D.; pH 7.5; 37.0 °C. The method, then:
as §1, §4, §3, §5

Consider Glp-Thi-ProNH2, for which the Km on TRH-DE [1] amounted to 34 ± 6 µM. For the same molecule, the Vmax on TRH-DE [2] (estimated from HPLC rates of hydrolysis using Vmax=vo{(Km+[S])/[S]}) is recorded as 2.19 ± 0.16 (6) U mg^−1. Moreover, on TRH-DE [2] (peptide 1 mM, 37° C., Glp production by HPLC, mean±S.D.), the Rate of hydrolysis is 2.12 ± 0.16 (6) U mg^−1.

B1: TRH-DE (Sus scrofa) (protein)
chain: MALDGERGEQEEEKKKKKKKKKRKKKKEEEGAKKSSSPFVATMGENDAALRAGGRGLSDPWADSVGVRPRTTERHITVHKRLVLAFAVSIVALLAVTMLAVLLSLRFDECGASIPPGADGGPAGFPARGGNESLPGSSRRDHHAGGDSSQPGAGREDTPETPSAQPPSEEEQEQWQPWTQLRLSGHLKPLHYNLMLTAFMENFTFSGEVNVEIACRNATRYVVLHASRVAVEKVQVAEDRVAGAVPVAGFFLYPQTQVLVVVLNRTLDAQRNYNLKIIYNALIENELLGFFRSSYVLHGERRFLGVTQFSPTHARKAFPCFDEPIYKATFKISIKHQATYLSLSNMPVETSVFEEDGWVTDHFSQTPLMSTYYLAWAICNFTYRETTTKSGVVVRLYARPDAIRRGSGDYALHITKRLIEFYEDYFKVPYSLPKLDLLAVPKHPYAAMENWGLSIFVEQRILLDPSVSSISYLLDVTMVIVHEICHQWFGDLVTPVWWEDVWLKEGFAHYFEFVGTDYLYPGWNMEKQRFLTDVLHEVMLLDGLASSHPVSQEVLRATDIDRVFDWIAYKKGAALIRMLANFMGHSVFQRGLQDYLTIHKYGNAARNDLWNTLSEALKRNGKYVNIQEVMDQWTLQMGYPVITIFGNTTAENRIIITQQHFIYDISAKAKPHELQNSSYLWQIPLTIVVGNRSHVSSEAIIWVSNKTEHHRITSLNKGSWLLGNINQTGYFRVNYDLRNWRLLIDQLIRNHEVLSVSNRAGLIDDAFSLARAGYLPQNIPLEIIRYLSEEKDFLPWHAASRALYPLDKLLDRMEKYNVFNEYILKQVATTYIKLGWPKNNFNGSLVQASYQHEELRREVIMLACSFGNKHCHQQASTLISDWISSNRNRIPLNVRDIVYCTGVSLLDEDVWEFIWMKFHSTTAISEKKILLEALTCSDDRNLLNRLLNLSLNSEVVLDQDAIDVIIHVARNPHGRDLAWKFFRDKWKILNTRYGEALFMNSKLISGVTEFLNTEGELKELKNFMKSYDGVAAASFSRAVETVEANVRWKMLYQDELFQWLGKALRH
notes: The inventor purified TRH-DE from porcine brain according to purification procedures previously published by Dr. K. Bauer; from tissue; host or cells: porcine brain (TRH-DE); bovine kidney (DPP-IV, gift from Dr. C. H. Williams)
For the molecule B1, the Km in data set [3] was 3.5 ± 0.4 µM; in data set [4] it was 3.1 ± 0.5 µM; in data set [5], 55 ± 8 (3) μM; in data set [6] it was 15 ± 3 (4) μM. Moreover, the Vmax in data set [4] was determined as 0.11 µmol/min/mg; in data set [5], 1.64 µmol/min/mg; in data set [6], 0.67 µmol/min/mg. Besides, the results for the Vmax/Km in data set [4], in data set [5] and in data set [6] were 40000 µL/min/mg, 30000 µL/min/mg and 50000 µL/min/mg, respectively.

The values above are taken from US7378397B2 (The Provost, Fellows and Scholars of the College of the …, priority 2000, dated 2008).
